Measurements taken from publication PMC2566858 (Nucleic Acids Research, 2008).
Like-named read-outs stand apart in the source and are kept apart here.

Key:
Assay in all cases: fluorescence anisotropy
[1] = biological target: T1, rGyr_fl Y851F (full-length reverse gyrase) (Thermotoga maritima, UniProt O51934 1-1104, Y851F)
T1 sequence: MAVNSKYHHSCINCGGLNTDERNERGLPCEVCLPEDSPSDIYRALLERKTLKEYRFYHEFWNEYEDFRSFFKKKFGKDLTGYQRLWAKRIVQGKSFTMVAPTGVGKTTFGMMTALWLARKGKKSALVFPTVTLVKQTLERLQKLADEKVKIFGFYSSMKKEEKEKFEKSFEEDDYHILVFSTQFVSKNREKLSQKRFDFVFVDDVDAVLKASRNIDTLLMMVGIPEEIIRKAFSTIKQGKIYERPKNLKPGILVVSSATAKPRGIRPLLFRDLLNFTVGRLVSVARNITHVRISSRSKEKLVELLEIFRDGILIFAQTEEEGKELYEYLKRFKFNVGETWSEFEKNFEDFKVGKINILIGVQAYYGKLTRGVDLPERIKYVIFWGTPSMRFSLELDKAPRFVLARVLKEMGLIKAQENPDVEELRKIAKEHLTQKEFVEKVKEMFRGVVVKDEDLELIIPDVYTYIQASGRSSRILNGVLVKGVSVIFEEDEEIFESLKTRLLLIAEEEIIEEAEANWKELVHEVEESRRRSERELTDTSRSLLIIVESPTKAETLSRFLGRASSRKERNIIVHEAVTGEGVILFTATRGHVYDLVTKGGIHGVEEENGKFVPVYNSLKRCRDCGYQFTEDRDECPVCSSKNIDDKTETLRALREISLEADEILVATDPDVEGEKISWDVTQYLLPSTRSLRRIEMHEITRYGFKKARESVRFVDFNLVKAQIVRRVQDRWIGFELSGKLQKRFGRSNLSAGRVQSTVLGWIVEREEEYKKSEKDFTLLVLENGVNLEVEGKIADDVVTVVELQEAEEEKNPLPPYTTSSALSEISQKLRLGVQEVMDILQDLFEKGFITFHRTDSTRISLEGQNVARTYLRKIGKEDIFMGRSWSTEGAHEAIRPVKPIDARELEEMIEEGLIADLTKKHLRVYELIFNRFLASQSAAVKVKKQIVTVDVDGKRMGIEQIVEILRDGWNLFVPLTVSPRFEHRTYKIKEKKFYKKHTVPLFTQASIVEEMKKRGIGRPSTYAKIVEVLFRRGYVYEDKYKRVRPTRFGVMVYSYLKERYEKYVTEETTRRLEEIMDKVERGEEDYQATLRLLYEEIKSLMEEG

[2] = biological target: T1, rGyr_fl Y851F (full-length reverse …); remark: listed apart in the source
[3] = biological target: T1, rGyr_fl Y851F (full-length reverse …); remark: listed apart in the source
[4] = biological target: T1, rGyr_fl Y851F (full-length reverse …); remark: listed apart in the source
[5] = biological target: T2, rGyr_hel (reverse gyrase helicase-like domain) (Thermotoga maritima, UniProt O51934 59-541)
T2 sequence: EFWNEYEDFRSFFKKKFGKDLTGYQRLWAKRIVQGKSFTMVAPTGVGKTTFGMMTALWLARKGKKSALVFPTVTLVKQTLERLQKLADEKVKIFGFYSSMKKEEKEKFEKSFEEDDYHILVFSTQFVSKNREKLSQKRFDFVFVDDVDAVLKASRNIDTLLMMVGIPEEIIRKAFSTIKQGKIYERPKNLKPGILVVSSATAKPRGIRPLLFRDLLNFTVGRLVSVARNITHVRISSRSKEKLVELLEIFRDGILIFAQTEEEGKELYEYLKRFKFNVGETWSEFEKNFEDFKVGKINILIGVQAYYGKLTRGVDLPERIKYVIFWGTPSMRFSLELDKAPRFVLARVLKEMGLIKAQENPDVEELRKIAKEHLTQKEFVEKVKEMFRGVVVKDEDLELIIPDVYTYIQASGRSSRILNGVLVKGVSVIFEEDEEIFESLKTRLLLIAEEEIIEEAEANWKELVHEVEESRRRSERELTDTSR

[6] = biological target: T2, rGyr_hel (reverse gyrase helicase-like …); remark: listed apart in the source
[7] = biological target: T1, rGyr_fl Y851F (full-length reverse …); remark: listed apart in the source

B1: 60-base ssDNA (ssDNA)
DNA: AAGCCAAGCTTCTAGAGTCAGCCCGTGATATTCATTACTTCTTATCCTAGGATCCCCGTT
B1 gave a Kd [1] of 41 ± 1 nM, a Kd [2] of 45 ± 2 nM and a Kd [3] of 38 ± 2 nM. It also gave a Kd [4] of 330 ± 20 nM, a Kd [5] of 200 ± 10 nM and a Kd [6] of 380 ± 50 nM. It also gave a Kd [7] of 49 ± 12 nM.
